The series deals with HEK293T. The series is described as follows: plasma membrane surface immunostaining intensity (anti-HA, deep receptor scanning) (arbitrary fluorescence units); higher = higher plasma membrane expression.

± gives the uncertainty stated by the source.

With “MEEENATLLTEFVLTGFLYQPQWKIPLFLAFLVIYLITIMGNLGLIAVIWKDPHLHIPMYLLLGNLAFVDALLSSSVTLKMLINFLAKSKMISLSECKIQLFSFAISVTTECFLLATMAYDRYVAICKPLLYPAIMTNGLCIRLLILSYVGGLLHALIHEGFLFRLTFCNSNIIQHFYCDIIPLLKISYTDSSINFLMVFIFAGSIQVFTIGTVLISYIFVLYTILKKKSVKGMRKAFSTCGAHLLSVSLYYGPLAFMYMGSASPQADDQDMMESLFYTVIVPLLNPMIYSLRNKQVIASFTKMFKRNDV [OR5H14]”, the “plasma membrane surface immunostaining intensity” value (GPCR class: A (Olfactory)) is 116 ± 19.

As for “MDTSRLGVLLSLPVLLQLATGGSSPRSGVLLRGCPTHCHCEPDGRMLLRVDCSDLGLSELPSNLSVFTSYLDLSMNNISQLLPNPLPSLRFLEELRLAGNALTYIPKGAFTGLYSLKVLMLQNNQLRHVPTEALQNLRSLQSLRLDANHISYVPPSCFSGLHSLRHLWLDDNALTEIPVQAFRSLSALQAMTLALNKIHHIPDYAFGNLSSLVVLHLHNNRIHSLGKKCFDGLHSLETLDLNYNNLDEFPTAIRTLSNLKELGFHSNNIRSIPEKAFVGNPSLITIHFYDNPIQFVGRSAFQHLPELRTLTLNGASQITEFPDLTGTANLESLTLTGAQISSLPQTVCNQLPNLQVLDLSYNLLEDLPSFSVCQKLQKIDLRHNEIYEIKVDTFQQLLSLRSLNLAWNKIAIIHPNAFSTLPSLIKLDLSSNLLSSFPITGLHGLTHLKLTGNHALQSLISSENFPELKVIEMPYAYQCCAFGVCENAYKISNQWNKGDNSSMDDLHKKDAGMFQAQDERDLEDFLLDFEEDLKALHSVQCSPSPGPFKPCEHLLDGWLIRIGVWTIAVLALTCNALVTSTVFRSPLYISPIKLLIGVIAAVNMLTGVSSAVLAGVDAFTFGSFARHGAWWENGVGCHVIGFLSIFASESSVFLLTLAALERGFSVKYSAKFETKAPFSSLKVIILLCALLALTMAAVPLLGGSKYGASPLCLPLPFGEPSTMGYMVALILLNSLCFLMMTIAYTKLYCNLDKGDLENIWDCSMVKHIALLLFTNCILNCPVAFLSFSSLINLTFISPEVIKFILLVVVPLPACLNPLLYILFNPHFKEDLVSLRKQTYVWTRSKHPSLMSINSDDVEKQSCDSTQALVTFTSSSITYDLPPSSVPSPAYPVTESCHLSSVAFVPCL [LGR5]”, the “plasma membrane surface immunostaining intensity” value (GPCR class: A) worked out at 283 ± 25.

“MDNITWMASHTGWSDFILMGLFRQSKHPMANITWMANHTGWSDFILLGLFRQSKHPALLCVVIFVVFLMALSGNAVLILLIHCDAHLHTPMYFFISQLSLMDMAYISVTVPKMLLDQVMGVNKISAPECGMQMFFYVTLAGSEFFLLATMAYDRYVAICHPLRYPVLMNHRVCLFLSSGCWFLGSVDGFTFTPITMTFPFRGSREIHHFFCEVPAVLNLSCSDTSLYEIFMYLCCVLMLLIPVVIISSSYLLILLTIHGMNSAEGRKKAFATCSSHLTVVILFYGAAIYTYMLPSSYHTPEKDMMVSVFYTILTPVVNPLIYSLRNKDVMGALKKMLTVEPAFQKAME [OR2T4]”: the “plasma membrane surface immunostaining intensity” value (GPCR class: A (Olfactory)) came out at 122 ± 21.

For “MQALNITPEQFSRLLRDHNLTREQFIALYRLRPLVYTPELPGRAKLALVLTGVLIFALALFGNALVFYVVTRSKAMRTVTNIFICSLALSDLLITFFCIPVTMLQNISDNWLGGAFICKMVPFVQSTAVVTEILTMTCIAVERHQGLVHPFKMKWQYTNRRAFTMLGVVWLVAVIVGSPMWHVQQLEIKYDFLYEKEHICCLEEWTSPVHQKIYTTFILVILFLLPLMVMLILYSKIGYELWIKKRVGDGSVLRTIHGKEMSKIARKKKRAVIMMVTVVALFAVCWAPFHVVHMMIEYSNFEKEYDDVTIKMIFAIVQIIGFSNSICNPIVYAFMNENFKKNVLSAVCYCIVNKTFSPAQRHGNSGITMMRKKAKFSLRENPVEETKGEAFSDGNIEVKLCEQTEEKKKLKRHLALFRSELAENSPLDSGH [QRFPR]”, for the setting “GPCR class: A”, the “plasma membrane surface immunostaining intensity” value worked out at 392 ± 31.

As to “METPNTTEDYDTTTEFDYGDATPCQKVNERAFGAQLLPPLYSLVFVIGLVGNILVVLVLVQYKRLKNMTSIYLLNLAISDLLFLFTLPFWIDYKLKDDWVFGDAMCKILSGFYYTGLYSEIFFIILLTIDRYLAIVHAVFALRARTVTFGVITSIIIWALAILASMPGLYFSKTQWEFTHHTCSLHFPHESLREWKLFQALKLNLFGLVLPLLVMIICYTGIIKILLRRPNEKKSKAVRLIFVIMIIFFLFWTPYNLTILISVFQDFLFTHECEQSRHLDLAVQVTEVIAYTHCCVNPVIYAFVGERFRKYLRQLFHRRVAVHLVKWLPFLSVDRLERVSSTSPSTGEHELSAGF [CCR1]”, the “plasma membrane surface immunostaining intensity” value (GPCR class: A) worked out at 5560 ± 180.

With “MASPSLPGSDCSQIIDHSHVPEFEVATWIKITLILVYLIIFVMGLLGNSATIRVTQVLQKKGYLQKEVTDHMVSLACSDILVFLIGMPMEFYSIIWNPLTTSSYTLSCKLHTFLFEACSYATLLHVLTLSFERYIAICHPFRYKAVSGPCQVKLLIGFVWVTSALVALPLLFAMGTEYPLVNVPSHRGLTCNRSSTRHHEQPETSNMSICTNLSSRWTVFQSSIFGAFVVYLVVLLSVAFMCWNMMQVLMKSQKGSLAGGTRPPQLRKSESEESRTARRQTIIFLRLIVVTLAVCWMPNQIRRIMAAAKPKHDWTRSYFRAYMILLPFSETFFYLSSVINPLLYTVSSQQFRRVFVQVLCCRLSLQHANHEKRLRVHAHSTTDSARFVQRPLLFASRRQSSARRTEKIFLSTFQSEAEPQSKSQSLSLESLEPNSGAKPANSAAENGFQEHEV [GPR39]”, the “plasma membrane surface immunostaining intensity” value (GPCR class: A) came to 5870 ± 200.

For “METNFSTPLNEYEEVSYESAGYTVLRILPLVVLGVTFVLGVLGNGLVIWVAGFRMTRTVTTICYLNLALADFSFTATLPFLIVSMAMGEKWPFGWFLCKLIHIVVDINLFGSVFLIGFIALDRCICVLHPVWAQNHRTVSLAMKVIVGPWILALVLTLPVFLFLTTVTIPNGDTYCTFNFASWGGTPEERLKVAITMLTARGIIRFVIGFSLPMSIVAICYGLIAAKIHKKGMIKSSRPLRVLTAVVASFFICWFPFQLVALLGTVWLKEMLFYGKYKIIDILVNPTSSLAFFNSCLNPMLYVFVGQDFRERLIHSLPTSLERALSEDSAPTNDTAANSASPPAETELQAM [FPR2]”, for the setting “GPCR class: A”, the “plasma membrane surface immunostaining intensity” value is 6515 ± 60.

Turning to “MKSILDGLADTTFRTITTDLLYVGSNDIQYEDIKGDMASKLGYFPQKFPLTSFRGSPFQEKMTAGDNPQLVPADQVNITEFYNKSLSSFKENEENIQCGENFMDIECFMVLNPSQQLAIAVLSLTLGTFTVLENLLVLCVILHSRSLRCRPSYHFIGSLAVADLLGSVIFVYSFIDFHVFHRKDSRNVFLFKLGGVTASFTASVGSLFLTAIDRYISIHRPLAYKRIVTRPKAVVAFCLMWTIAIVIAVLPLLGWNCEKLQSVCSDIFPHIDETYLMFWIGVTSVLLLFIVYAYMYILWKAHSHAVRMIQRGTQKSIIIHTSEDGKVQVTRPDQARMDIRLAKTLVLILVVLIICWGPLLAIMVYDVFGKMNKLIKTVFAFCSMLCLLNSTVNPIIYALRSKDLRHAFRSMFPSCEGTAQPLDNSMGDSDCLHKHANNAASVHRAAESCIKSTVKIAKVTMSVSTDTSAEAL [CNR1]”, the “plasma membrane surface immunostaining intensity” value (GPCR class: A) is 130 ± 25.

“MWPNGSSLGPCFRPTNITLEERRLIASPWFAASFCVVGLASNLLALSVLAGARQGGSHTRSSFLTFLCGLVLTDFLGLLVTGTIVVSQHAALFEWHAVDPGCRLCRFMGVVMIFFGLSPLLLGAAMASERYLGITRPFSRPAVASQRRAWATVGLVWAAALALGLLPLLGVGRYTVQYPGSWCFLTLGAESGDVAFGLLFSMLGGLSVGLSFLLNTVSVATLCHVYHGQEAAQQRPRDSEVEMMAQLLGIMVVASVCWLPLLVFIAQTVLRNPPAMSPAGQLSRTTEKELLIYLRVATWNQILDPWVYILFRRAVLRRLQPRLSTRPRSLSLQPQLTQRSGLQ [TBXA2R]”: for the setting “GPCR class: A”, the “plasma membrane surface immunostaining intensity” value was 6469 ± 48.

“MKLWMESHLIVPETRPSPRMMSNQTLVTEFILQGFSEHPEYRVFLFSCFLFLYSGALTGNVLITLAITFNPGLHAPMYFFLLNLATMDIICTSSIMPKALASLVSEESSISYGGCMAQLYFLTWAASSELLLLTVMAYDRYAAICHPLHYSSMMSKVFCSGLATAVWLLCAVNTAIHTGLMLRLDFCGPNVIIHFFCEVPPLLLLSCSSTYVNGVMIVLADAFYGIVNFLMTIASYGFIVSSILKVKTAWGRQKAFSTCSSHLTVVCMYYTAVFYAYISPVSGYSAGKSKLAGLLYTVLSPTLNPLIYTLRNKEVKAALRKLFPFFRN [OR13A1]”: the “plasma membrane surface immunostaining intensity” value (GPCR class: A (Olfactory)) was determined as 120 ± 26.

The values are drawn from the supplement of paper PMC12458215.
